From article PMC9399999 (2022)

Molecular target: prototypic SARS-CoV-2 RBD (residues 319-541) (SARS-CoV-2 (prototype), UniProt P0DTC2 319-541)
Experiment: SPR

B1: S304 antibody (IgG1) (antibody, V domains shown)
VH: EVQLVESGGGLVQPGGSLRLSCAASGFTFSSYDMHWVRQTTGKGLEWVSTIGTAGDTYYPDSVKGRFTISREDAKNSLYLQMNSLRAGDTAVYYCARGDSSGYYYYFDYWGQGTLLTVSS
VL: DIQMTQSPSSLSAAVGDRVTITCRASQSIGSYLNWYQQKPGKAPKLLIYAASSLQSGVPSRFSGSGSGTDFTLTISSLQPEDFAIYYCQQSYVSPTYTFGPGTKVDIK
- koff: 0.00664 s⁻¹
